{"source": "patent US20170306005A1", "about": "(NASCIENT, published 2017)", "binders": {"B1": {"name": "165_13_C3 human IgG4 (antibody, V domains shown)", "VH": "QVQLVESGGGLVQPGRSLRLSCAASGFTFDDYAMHWVRQAPGKGLEWVSGISGSGGSTYYADSVKGRFTISRDNAKNSLYLQMNSLRAEDTALYYCAKSYQSDEDAFDIWGQGTMVTVSS", "VL": "DIQMTQSPASLPTPVGDRVTITCRASQYIQGFLNWYQQKPGKAPKLLIYDASNLETGVPSRFSGSGSGTDFTLTISSLQPEDFATYYCQQSYSTPQTFGQGTKVDIKR", "notes": "also called IgG4 C3; C3 IgG4 MAb"}}, "key": {"human Fc-His-FBG": {"target": "T1, human Fc-His-FBG (human, UniProt P24821 1974-2201)", "T1 construct": "C-terminal FBG fusion to human IgG1 Fc; also called Fc-His-huFBG; huFc-His-FBG; not shown: human IgG1 Fc tag; 6His tag", "T1 sequence": "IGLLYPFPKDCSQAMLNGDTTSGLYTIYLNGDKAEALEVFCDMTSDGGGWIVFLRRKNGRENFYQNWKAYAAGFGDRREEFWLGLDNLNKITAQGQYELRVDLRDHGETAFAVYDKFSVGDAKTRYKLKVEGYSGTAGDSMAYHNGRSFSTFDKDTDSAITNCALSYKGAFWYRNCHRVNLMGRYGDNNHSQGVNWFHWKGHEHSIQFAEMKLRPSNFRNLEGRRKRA", "assay": "plate assay: inhibition of binding of 100 nM Fc-His-TNC-FBG to coated TLR4, against isotype control", "method": "FIG. 16B. […] Detection was carried out by successive incubation of antibody directed against the Fc portion of the protein, an anti-mouse HRP conjugated secondary antibody and TMB substrate.\nDetection was carried out by successive incubation of antibody directed against the Fc portion of the protein, an anti-mouse HRP conjugated secondary antibody and TMB substrate."}, "[1]": {"target": "T2, human tenascin-R rCd4-His-FBG (rat; human, UniProt P05540 207-392, limits assumed)", "T2 construct": "domain: domains 3 and 4; C-terminal FBG fusion; also called Hu TNR; human TNR rCd4-His-FBG; not shown: 6His tag", "T2 sequence (chain (part 1 of 2))": "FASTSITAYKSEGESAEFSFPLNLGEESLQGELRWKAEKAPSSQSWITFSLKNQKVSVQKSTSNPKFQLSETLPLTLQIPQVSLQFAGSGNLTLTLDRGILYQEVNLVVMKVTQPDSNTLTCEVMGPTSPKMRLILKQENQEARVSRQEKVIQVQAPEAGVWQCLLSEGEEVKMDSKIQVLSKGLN", "T2 sequence (chain (part 2 of 2))": "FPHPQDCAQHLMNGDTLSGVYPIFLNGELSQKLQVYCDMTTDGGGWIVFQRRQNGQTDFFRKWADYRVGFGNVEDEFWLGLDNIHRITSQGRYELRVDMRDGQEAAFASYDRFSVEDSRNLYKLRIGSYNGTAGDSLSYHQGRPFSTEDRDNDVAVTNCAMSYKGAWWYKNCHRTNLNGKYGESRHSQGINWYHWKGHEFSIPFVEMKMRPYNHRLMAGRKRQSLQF", "assay": "SPR, captured purified IgG4, 37 C; purified IgG4, full kinetics, SPR at 37 C", "method": "Detailed kinetic parameters were evaluated for the 9 prioritised IgG4 antibodies. Binding characteristics were determined for interaction with human, rat and dog TNC rCD4-His-FBG, and human TNR rCD4-His-FBG. Kinetic assays followed essentially the same protocols as for the off-rate determinations described above, with some modifications as follows. […] Purified anti-FBG IgG4 was diluted to a concentration of 3.5 nM in PBS, pH 7.4, 0.05% Tween-20 and injected into FC2 at a flow rate of 10 μl/min, 60 s contact time. […] Antigens were prepared by doubling dilution in PBS, pH 7.4, 0.05% Tween-20 (highest concentration 100 nM except mouse rCD4-His-FBG which was 7 nM). Assays were performed at 37° C. (30 μl/min, 120 s contact time; mouse rCD4-His-FBGFBG 10 μl/min, 60 s contact time), with both the flow cell and injection chamber equilibrated to this temperature. As before, kinetic parameters were determined by reference cell subtraction and fitting the sensogram experimental data assuming a 1:1 interaction using BIAevaluation software (GE, BR-1005-97)."}, "[2]": {"target": "T2, human tenascin-R rCd4-His-FBG", "assay": "SPR off-rate screen, captured IgG4 supernatant, 25 C; off-rate screen, IgG4 in culture supernatant, 100 nM TNR antigen, 25 C", "method": "The 31 scFv of interest were sub-cloned into a human IgG4 expression vector for generation of antibodies as human IgG4 with a hinge-stabilising mutation (S241P; Angal et al, 1993). […] Briefly, surface plasmon resonance (SPR) experiments were performed using a BIAcore T100 instrument and followed the protocol according to the Human antibody capture kit protocol (GE, BR-1008-39). For off-rate screening, 10,000 response units (RU) of anti-human Fc IgG (GE, BR-1008-39) was immobilised on flow-cells (FC1 and FC2) of a Series 5 CM5 dextran sensor chip (BR-1005-30) using EDC/NHS cross-linking chemistry according to the amine coupling kit protocol (GE, BR-1000-50). Culture supernatants containing expressed IgG4 were diluted 1:2 with 2×PBS-T and injected into FC2 (flowrate 5 μl/min, 60 s contact time) to enable antibody capture at 25° C. […] A fixed concentration of antigen (15 nM of human and mouse TNC rCd4-His-FBG and 100 nM of human TNR rCd4-His-FBG) was injected with a flow-path via FC 1 (reference flow cell) and FC 2 (antibody capture flow cell), with a flow rate of 30 μl/min, and the association and dissociation phases measured over 1 and 5 min time periods, respectively. […] Off rates were determined by reference cell subtraction and fitting the sensogram experimental data assuming a 1:1 interaction using BIAevaluation software (GE, BR-1005-97)."}}, "data": [{"binder": "B1", "values": [{"measurement": "IC50", "setting": "human Fc-His-FBG", "value": 44.5, "unit": "nM"}, {"measurement": "Kd", "setting": "[1]", "value": 35.8, "unit": "nM"}, {"measurement": "koff", "setting": "[1]", "value": 0.0431, "unit": "s⁻¹"}, {"measurement": "kon", "setting": "[1]", "value": "1.2e+06", "unit": "M⁻¹ s⁻¹"}, {"measurement": "koff", "setting": "[2]", "value": 0.012, "unit": "s⁻¹"}]}]}
